First the molecules themselves.
B1: Ac-…(FB) (peptide)
peptide: XGDLTYLKX
modifications: N-terminal acetyl (Ac); fluorobenzoyl (FB) on the side chain of the C-terminal lysine
notes: N-acetylated variant of ST1-62
B2: FB-…(FB) (peptide)
peptide: XGDLTYLKX
modifications: N-terminal fluorobenzoyl (FB); fluorobenzoyl (FB) on the side chain of the C-terminal lysine
notes: N-fluorobenzoylated variant of ST1-62
B3: Me-…(FB) (peptide)
peptide: XGDLTYLKX
modifications: N-terminal methyl (Me); fluorobenzoyl (FB) on the side chain of the C-terminal lysine
notes: N-methylated variant of ST1-62
B4: FB-…(FB)-PEG28 (peptide)
peptide: XGDLTYLKXX
modifications: N-terminal fluorobenzoyl (FB); fluorobenzoyl (FB) on the side chain of the C-terminal lysine; PEG28 attached to the C-terminal lysine
notes: also called ST1-92
B5: FB-…(Ac) (peptide)
peptide: XGDLTYLKX
modifications: N-terminal fluorobenzoyl (FB); acetyl (Ac) on the side chain of the C-terminal lysine
notes: as for B2
B6: FB-…(Ac)-PEG28 (peptide)
peptide: XGDLTYLKXX
modifications: N-terminal fluorobenzoyl (FB); acetyl (Ac) on the side chain of the C-terminal lysine; PEG28 attached to the C-terminal lysine
notes: N-fluorobenzoylated, C-PEGylated variant of ST1-62
B7: ST1-59, …(FB) (peptide)
peptide: H-RGDLMKLAK(Benzoyl(4-F))-NH2
SMILES: CSCC[C@H](NC(=O)[C@H](CC(C)C)NC(=O)[C@H](CC(=O)O)NC(=O)CNC(=O)[C@@H](N)CCCNC(=N)N)C(=O)N[C@@H](CCCCN)C(=O)N[C@@H](CC(C)C)C(=O)N[C@@H](C)C(=O)N[C@@H](CCCCNC(=O)c1ccc(F)cc1)C(N)=O
notes: free N-terminus; also called Peptide 2
B8: ST1-61, …(FB) (peptide)
peptide: H-RGDLRELAK(Benzoyl(4-F))-NH2
SMILES: CC(C)C[C@H](NC(=O)[C@H](CCC(=O)O)NC(=O)[C@H](CCCNC(=N)N)NC(=O)[C@H](CC(C)C)NC(=O)[C@H](CC(=O)O)NC(=O)CNC(=O)[C@@H](N)CCCNC(=N)N)C(=O)N[C@@H](C)C(=O)N[C@@H](CCCCNC(=O)c1ccc(F)cc1)C(N)=O
notes: free N-terminus; also called Peptide 5

*: point of attachment. Benzoyl(4-F) = O=C(c1ccc(F)cc1)*

T1 sequence (P06756 31-992, chain 1 of 2): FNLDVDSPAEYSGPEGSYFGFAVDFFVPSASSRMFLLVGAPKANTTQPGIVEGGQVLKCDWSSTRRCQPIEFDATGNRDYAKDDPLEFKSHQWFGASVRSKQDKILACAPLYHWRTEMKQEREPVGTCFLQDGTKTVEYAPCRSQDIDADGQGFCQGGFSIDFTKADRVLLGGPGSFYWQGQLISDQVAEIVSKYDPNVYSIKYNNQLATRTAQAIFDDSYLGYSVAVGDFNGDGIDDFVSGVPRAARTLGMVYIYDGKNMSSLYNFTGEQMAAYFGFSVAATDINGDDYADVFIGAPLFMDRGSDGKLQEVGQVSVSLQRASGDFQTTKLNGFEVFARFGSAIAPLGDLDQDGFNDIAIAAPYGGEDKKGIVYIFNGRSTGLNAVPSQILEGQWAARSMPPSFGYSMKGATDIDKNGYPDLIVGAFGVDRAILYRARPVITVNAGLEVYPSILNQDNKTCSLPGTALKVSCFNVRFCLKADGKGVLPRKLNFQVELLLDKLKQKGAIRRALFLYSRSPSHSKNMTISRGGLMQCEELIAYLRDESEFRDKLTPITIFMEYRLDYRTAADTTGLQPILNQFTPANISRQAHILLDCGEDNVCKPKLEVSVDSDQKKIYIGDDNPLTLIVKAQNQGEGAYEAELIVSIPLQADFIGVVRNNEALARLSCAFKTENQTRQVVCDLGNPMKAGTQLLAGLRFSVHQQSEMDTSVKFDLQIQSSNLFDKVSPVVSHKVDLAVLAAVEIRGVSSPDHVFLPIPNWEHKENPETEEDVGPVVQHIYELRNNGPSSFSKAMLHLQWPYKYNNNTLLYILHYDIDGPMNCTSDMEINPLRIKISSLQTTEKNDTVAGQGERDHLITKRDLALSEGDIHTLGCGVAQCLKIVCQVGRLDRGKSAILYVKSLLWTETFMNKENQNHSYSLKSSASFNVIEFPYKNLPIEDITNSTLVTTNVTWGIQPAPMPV
T1 sequence (P18564 22-707, chain 2 of 2): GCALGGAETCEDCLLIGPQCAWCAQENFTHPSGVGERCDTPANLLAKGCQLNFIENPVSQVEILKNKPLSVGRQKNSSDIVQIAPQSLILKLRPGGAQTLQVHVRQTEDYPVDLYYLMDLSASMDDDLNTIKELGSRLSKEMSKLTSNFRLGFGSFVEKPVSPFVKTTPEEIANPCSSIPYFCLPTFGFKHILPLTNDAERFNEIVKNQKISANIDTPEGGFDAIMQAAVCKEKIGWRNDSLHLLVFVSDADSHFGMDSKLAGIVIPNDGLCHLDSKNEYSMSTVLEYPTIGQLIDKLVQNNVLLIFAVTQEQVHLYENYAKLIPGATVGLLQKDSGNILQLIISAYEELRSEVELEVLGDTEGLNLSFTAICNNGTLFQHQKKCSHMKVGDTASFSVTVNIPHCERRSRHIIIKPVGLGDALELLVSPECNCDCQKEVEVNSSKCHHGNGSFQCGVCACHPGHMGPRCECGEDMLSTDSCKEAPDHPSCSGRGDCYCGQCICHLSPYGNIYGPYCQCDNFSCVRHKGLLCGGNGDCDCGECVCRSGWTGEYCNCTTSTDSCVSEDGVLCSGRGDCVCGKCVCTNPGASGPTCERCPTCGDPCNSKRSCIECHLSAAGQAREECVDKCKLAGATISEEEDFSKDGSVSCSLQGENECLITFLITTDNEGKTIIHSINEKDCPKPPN
Chain of αvβ8 integrin (purified) (P06756 31-992, chain 1 of 2): as the sequence (P06756 31-992, chain 1 of 2) above
Chain of αvβ8 integrin (purified) (P26012 43-684, chain 2 of 2): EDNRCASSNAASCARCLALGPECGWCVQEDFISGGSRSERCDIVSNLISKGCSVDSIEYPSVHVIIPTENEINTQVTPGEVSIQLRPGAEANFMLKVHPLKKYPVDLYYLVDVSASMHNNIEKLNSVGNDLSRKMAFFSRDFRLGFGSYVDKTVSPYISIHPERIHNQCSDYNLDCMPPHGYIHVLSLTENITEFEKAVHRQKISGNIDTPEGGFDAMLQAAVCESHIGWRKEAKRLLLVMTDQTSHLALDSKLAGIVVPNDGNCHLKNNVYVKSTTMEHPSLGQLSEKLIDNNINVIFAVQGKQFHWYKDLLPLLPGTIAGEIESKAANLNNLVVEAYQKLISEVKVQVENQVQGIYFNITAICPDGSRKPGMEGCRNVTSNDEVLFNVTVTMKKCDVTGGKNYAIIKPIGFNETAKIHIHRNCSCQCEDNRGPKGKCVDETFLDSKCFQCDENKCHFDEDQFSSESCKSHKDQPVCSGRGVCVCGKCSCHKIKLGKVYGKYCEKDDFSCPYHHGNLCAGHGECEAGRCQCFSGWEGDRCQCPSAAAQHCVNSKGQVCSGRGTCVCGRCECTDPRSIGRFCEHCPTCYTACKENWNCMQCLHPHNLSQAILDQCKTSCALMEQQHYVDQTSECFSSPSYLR

One experiment concerns the target T1, αvβ6 integrin (purified) (UniProt P06756 31-992; P18564 22-707).
T1 construct: Purified integrin captured on plate by anti-αv antibody P2W7; also called purified integrin
Put plainly: ELISA, αvβ6 integrin. On the technique in general: In an ELISA, binding on a coated surface is turned into a signal by an enzyme label.
With B1, the IC50 (usually the concentration needed to halve the response being measured) was determined as 1600 nM. This counts as single-digit micromolar.

As for B2, the IC50 was 21.9 nM.

As for B3, the half-inhibitory concentration (IC50) was 500 nM.

In the case of B4, half-maximal inhibition (IC50) required 17.6 nM.

As to B5, half-maximal inhibition (IC50) required 4.3 nM.

B6 had an IC50 of 15.5 nM.

In the next experiment the target is αvβ1 integrin (purified) (UniProt P06756 31-992; P05556 21-728). Put plainly: competitive binding ELISA, purified integrin; competitor biotinylated natural ligand. The procedure: (§1) Anti-αᵥ capture antibody P2W7 (5 μg/mL, Novus Biologicals) was coated onto Nunc MaxiSorp 96-well plates, followed by blocking with BSA overnight at 4° C. All wells were washed 3 times with PBS, followed by plating of purified integrin (3 μg/mL) and incubating at room temperature in a humid chamber for 1 hour. Peptide solutions, titrated (1 μM-1 pM for integrin and 100 μM-100 pM for αᵥβ₃ integrin) and mixed with biotinylated natural ligand, were added to the integrin-coated wells in triplicate. After incubating for an hour at room temperature, the plate was washed 3 times with wash buffer. Captured biotinylated natural ligand was detected with ExtrAvidin-HRP and developed with TMB substrate. Half-maximal inhibitory concentration (IC₅₀) of peptides was determined fitting to sigmoidal dose-response model in GraphPad Prism 6.0 (FIG. 5A). Results are shown in FIG. 5B and below in Table 2.
Chain of αvβ1 integrin (purified) (P06756 31-992, chain 1 of 2): as the sequence (P06756 31-992, chain 1 of 2) above
Chain of αvβ1 integrin (purified) (P05556 21-728, chain 2 of 2): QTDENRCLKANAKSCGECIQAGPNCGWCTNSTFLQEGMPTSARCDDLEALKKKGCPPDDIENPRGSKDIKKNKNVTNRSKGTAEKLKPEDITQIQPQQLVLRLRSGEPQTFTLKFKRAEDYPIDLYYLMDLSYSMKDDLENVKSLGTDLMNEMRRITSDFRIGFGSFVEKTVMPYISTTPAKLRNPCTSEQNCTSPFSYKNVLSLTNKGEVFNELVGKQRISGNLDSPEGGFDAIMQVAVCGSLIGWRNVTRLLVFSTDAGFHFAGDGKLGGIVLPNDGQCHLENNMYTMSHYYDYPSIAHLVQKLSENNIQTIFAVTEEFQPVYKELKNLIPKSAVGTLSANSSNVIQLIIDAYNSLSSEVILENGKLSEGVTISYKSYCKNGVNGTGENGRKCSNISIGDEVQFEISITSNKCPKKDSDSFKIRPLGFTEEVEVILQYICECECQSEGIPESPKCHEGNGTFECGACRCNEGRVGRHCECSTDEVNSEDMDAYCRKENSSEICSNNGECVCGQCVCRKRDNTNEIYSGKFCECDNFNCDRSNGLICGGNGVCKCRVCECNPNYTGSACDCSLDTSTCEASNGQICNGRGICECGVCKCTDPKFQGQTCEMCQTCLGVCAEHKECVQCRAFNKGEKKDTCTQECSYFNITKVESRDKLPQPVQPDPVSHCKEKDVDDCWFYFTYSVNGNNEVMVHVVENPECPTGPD
Molecule B7 came in with a half-maximal inhibitory concentration (IC50) of 900 nM.

Molecule B8 came in with an IC50 of 2300 nM.

Turning to H-RGDLADLRK(Benzoyl(4-F))-NH2 (free N-terminus; also called Peptide 3) [ST1-60, …(FB)], the IC50 came out at 600 nM.

The next experiment concerns the target T1, αvβ6 integrin (purified). Described as above. How it is done: as §1
Turning to B7, the IC50 was found to be 2.7 nM. This counts as single-digit nanomolar.

H-VGDLTYLKK(4‑fluorobenzoyl)-NH2 (free N-terminus; also called Peptide 1) [ST1-62, …(FB)]: the IC50 was 11 nM.

B8 came in with an IC50 of 1.1 nM.

On to H-RGDLADLRK(Benzoyl(4-F))-NH2 (free N-terminus; also called Peptide 3) [ST1-60, …(FB)], for which the IC50 turned out to be 4.7 nM.

In the next experiment the target is αvβ3 integrin (purified) (UniProt P06756 31-992; P05106 27-718). The experiment is described as above. How it is done: as §1
Chain of αvβ3 integrin (purified) (P06756 31-992, chain 1 of 2): as the sequence (P06756 31-992, chain 1 of 2) above
Chain of αvβ3 integrin (purified) (P05106 27-718, chain 2 of 2): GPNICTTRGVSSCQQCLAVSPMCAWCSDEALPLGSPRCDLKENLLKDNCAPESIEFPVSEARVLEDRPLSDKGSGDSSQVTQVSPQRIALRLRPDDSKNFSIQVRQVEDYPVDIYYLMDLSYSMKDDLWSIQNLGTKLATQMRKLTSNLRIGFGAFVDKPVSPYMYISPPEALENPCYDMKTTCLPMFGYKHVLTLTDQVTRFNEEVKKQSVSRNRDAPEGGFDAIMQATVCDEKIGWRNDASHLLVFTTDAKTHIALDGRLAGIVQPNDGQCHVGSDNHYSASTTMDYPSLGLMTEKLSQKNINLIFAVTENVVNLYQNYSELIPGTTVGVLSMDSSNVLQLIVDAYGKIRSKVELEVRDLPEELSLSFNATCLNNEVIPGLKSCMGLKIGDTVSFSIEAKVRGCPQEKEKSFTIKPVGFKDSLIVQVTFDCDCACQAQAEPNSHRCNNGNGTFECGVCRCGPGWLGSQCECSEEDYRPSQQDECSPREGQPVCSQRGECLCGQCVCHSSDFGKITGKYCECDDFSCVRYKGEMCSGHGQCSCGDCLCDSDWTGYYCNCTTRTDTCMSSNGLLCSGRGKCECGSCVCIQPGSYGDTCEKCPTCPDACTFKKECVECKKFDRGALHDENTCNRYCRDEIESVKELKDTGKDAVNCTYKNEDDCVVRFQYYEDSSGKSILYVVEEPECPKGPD
Molecule B7 registered an IC50 of 2200 nM. This lies in the single-digit micromolar range.

B8: the 50% inhibitory concentration (IC50) is 300 nM.

H-RGDLADLRK(Benzoyl(4-F))-NH2 (free N-terminus; also called Peptide 3) [ST1-60, …(FB)] gave an IC50 of 500 nM.

Another experiment concerns the target αvβ8 integrin (purified) (UniProt P06756 31-992; P26012 43-684). The experiment is described as above. The procedure: as §1
Turning to B7, the IC50 came out at 2590 nM.

H-VGDLTYLKK(4‑fluorobenzoyl)-NH2 (free N-terminus; also called Peptide 1) [ST1-62, …(FB)] yielded a 50% inhibitory concentration (IC50) of 5300 nM.

Molecule B8 showed an IC50 of 2600 nM. This IC50 is about 2-fold lower than that of the molecule before.

Molecule H-RGDLADLRK(Benzoyl(4-F))-NH2 (free N-terminus; also called Peptide 3) [ST1-60, …(FB)] gave an IC50 of 160 nM.

The record behind these values is patent US20190328910A1 (University of California, published 2019).
